Reference: patent publication US20240327506A1, “METHODS AND COMPOSITION FOR THE SELECTIVE ENHANCEMENT OF ADOPTIVE CELL THERAPY” (MaineHealth, priority 2023, published 2024)

Target: T1, β3 integrin (Homo sapiens, UniProt P05106+P06756)
T1 construct: we next stimulated human Jurkat T-cells or primary CD8+ T-cells with a synthetic version of the soluble RGDKGE; endogenous in cells; host or cells: Jurkat T-cells
Experiment: Western blot of β3 integrin phosphorylation in Jurkat T-cells after peptide stimulation
Format: cell-based
Details: compared to control peptide CP
Procedure: FIGS. 2A-2F. Detection of RGDKGE (SEQ ID NO: 1)-containing collagen peptide in malignant tumor cells and expression of key signaling molecules in T-cells. Briefly, whole cell lysates and serum free concentrated conditioned medium was prepared from tumor cells lines. FIG. 2A. Western blot analysis of whole cell lysates from human C8161 and murine B16F10 melanoma cells for the expression of the low molecular weight 16 kDa RGDKGE (SEQ ID NO: 1)-containing collagen peptide (XL313) or actin as a loading control. FIG. 2B. […]
Whole cell and CAM tissue lysates were collected in RIPA buffer (10 mM Tris-HCl, pH 8.0; 1 mM EDTA; 0.5 mM EGTA; 1% Triton X-100; 0.1% Sodium Deoxycholate; 0.1% SDS; 140 mM NaCl) supplemented with 1× protease inhibitor and 1× phosphatase inhibitor and were run on polyacrylamide gels using denaturing conditions. […] Western blot bands were quantified using Image J software based on pixel intensity.
We previously made the surprising observation that a small bioactive collagen peptide containing the core amino acid sequence RGDKGE (SEQ ID NO: 1) could be generated inside a subset of M2-like activated macrophages as well as a variety of other malignant tumor cells, and then actively secreted outside the cells (11-13). Importantly, minimal levels of this soluble collagen peptide was detected in normal cells (13). […]

T1 sequence (P05106 27-788): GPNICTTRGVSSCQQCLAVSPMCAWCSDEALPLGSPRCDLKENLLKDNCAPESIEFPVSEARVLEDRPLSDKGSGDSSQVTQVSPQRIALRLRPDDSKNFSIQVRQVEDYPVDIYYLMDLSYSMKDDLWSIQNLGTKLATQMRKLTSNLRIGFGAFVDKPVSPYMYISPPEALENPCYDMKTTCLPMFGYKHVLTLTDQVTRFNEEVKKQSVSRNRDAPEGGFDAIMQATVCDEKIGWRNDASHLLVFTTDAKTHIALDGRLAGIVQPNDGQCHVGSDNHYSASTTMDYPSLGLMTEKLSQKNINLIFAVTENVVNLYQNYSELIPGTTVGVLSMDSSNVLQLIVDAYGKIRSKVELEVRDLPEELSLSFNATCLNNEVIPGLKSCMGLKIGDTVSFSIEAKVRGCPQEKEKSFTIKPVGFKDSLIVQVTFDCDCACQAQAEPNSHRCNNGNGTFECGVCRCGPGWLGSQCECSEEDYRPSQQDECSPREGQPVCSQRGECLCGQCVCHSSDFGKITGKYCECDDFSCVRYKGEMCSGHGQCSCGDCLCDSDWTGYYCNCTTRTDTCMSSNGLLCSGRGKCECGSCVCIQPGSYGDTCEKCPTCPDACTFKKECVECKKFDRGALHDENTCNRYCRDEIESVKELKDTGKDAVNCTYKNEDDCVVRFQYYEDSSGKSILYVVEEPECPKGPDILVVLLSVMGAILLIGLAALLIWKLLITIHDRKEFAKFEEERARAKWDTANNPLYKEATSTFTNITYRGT
T1 sequence (P06756 31-889 limits assumed): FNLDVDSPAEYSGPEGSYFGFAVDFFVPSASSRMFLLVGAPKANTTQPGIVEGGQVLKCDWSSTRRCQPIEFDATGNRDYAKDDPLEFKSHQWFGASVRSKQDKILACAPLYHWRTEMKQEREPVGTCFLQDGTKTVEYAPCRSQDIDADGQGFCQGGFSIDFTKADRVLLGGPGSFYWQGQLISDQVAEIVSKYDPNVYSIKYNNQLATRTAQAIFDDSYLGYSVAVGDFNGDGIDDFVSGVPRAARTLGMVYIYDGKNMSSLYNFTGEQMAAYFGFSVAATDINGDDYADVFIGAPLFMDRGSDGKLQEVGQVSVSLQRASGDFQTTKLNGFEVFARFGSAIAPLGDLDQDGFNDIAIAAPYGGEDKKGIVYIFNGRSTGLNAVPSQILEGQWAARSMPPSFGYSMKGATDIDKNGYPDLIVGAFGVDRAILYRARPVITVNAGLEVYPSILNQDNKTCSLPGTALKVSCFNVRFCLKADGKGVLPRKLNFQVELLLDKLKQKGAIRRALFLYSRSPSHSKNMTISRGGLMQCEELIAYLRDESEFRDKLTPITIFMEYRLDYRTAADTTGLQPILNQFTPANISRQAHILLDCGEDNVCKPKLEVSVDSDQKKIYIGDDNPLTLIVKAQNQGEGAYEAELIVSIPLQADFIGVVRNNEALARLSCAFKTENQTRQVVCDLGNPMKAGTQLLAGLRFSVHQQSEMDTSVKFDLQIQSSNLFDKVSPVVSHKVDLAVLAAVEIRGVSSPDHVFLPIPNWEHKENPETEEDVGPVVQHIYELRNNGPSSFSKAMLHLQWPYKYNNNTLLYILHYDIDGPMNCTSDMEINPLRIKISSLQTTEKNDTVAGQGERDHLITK
T1 sequence (P06756 891-1048 partner limits assumed): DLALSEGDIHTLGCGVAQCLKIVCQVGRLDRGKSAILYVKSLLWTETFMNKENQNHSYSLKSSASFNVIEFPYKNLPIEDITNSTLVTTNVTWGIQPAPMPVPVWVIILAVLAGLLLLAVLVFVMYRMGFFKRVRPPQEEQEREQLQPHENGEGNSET

- β3 integrin phosphorylation: enhanced β3 integrin phosphorylation
Sequence: QGPRGDKGE (CQGPRGDKGEC; Synthetic: Synthetic collagen RGD containing peptide P-2) [Peptide P2, synthetic version of the soluble RGDKGE-containing collagen peptide]
